From patent US20260274955A1 (JANUX THERAPEUTICS, published 2026)

B1: Phage-489 (peptide)
peptide: YCAGHAPEYMSKCL
notes: on phage, pIII fusion
B2: Phage-475 (peptide)
peptide: YCAGHAAEYMTKCL
notes: on phage, pIII fusion
B3: Phage-521 (peptide)
peptide: YCEGHSVEYIGKCL
notes: on phage, pIII fusion
B4: Phage-488 (peptide)
peptide: YCEGHDLIYMWKCL
notes: on phage, pIII fusion
B5: Phage-497 (peptide)
peptide: YCAGHLAIYMSKCL
notes: on phage, pIII fusion
B6: Phage-468 (peptide)
peptide: YCAGHLPEFMDKCL
notes: on phage, pIII fusion
B7: Phage-479 (peptide)
peptide: YCDGHGPQYIQKCL
notes: on phage, pIII fusion
B8: Phage-566 (peptide)
peptide: YCDGHSPQYIQKCL
notes: on phage, pIII fusion
B9: Phage-503 (peptide)
peptide: YCDGHLLEYKAKCL
notes: on phage, pIII fusion
B10: Phage-470 (peptide)
peptide: YCDGHDVEYMAKCL
notes: on phage, pIII fusion
B11: Phage-522 (peptide)
peptide: YCDGHRVEYMAKCL
notes: on phage, pIII fusion
B12: Phage-486 (peptide)
peptide: YCDGHDVEYMSKCL
notes: on phage, pIII fusion
B13: Phage-526 (peptide)
peptide: YCDGHAKEYIQKCL
notes: on phage, pIII fusion
B14: Phage-473 (peptide)
peptide: YCEGHLAVYMEKCL
notes: on phage, pIII fusion
B15: Phage-494 (peptide)
peptide: YCDGHSLEYIGKCL
notes: on phage, pIII fusion
B16: Phage-490 (peptide)
peptide: YCEGHSSEYMWKCL
notes: on phage, pIII fusion
B17: Phage-524 (peptide)
peptide: YCAGHSSEYIPKCL
notes: on phage, pIII fusion
B18: Phage-495 (peptide)
peptide: YCDGHSEAFMQKCL
notes: on phage, pIII fusion
B19: Phage-492 (peptide)
peptide: YCEGHLEQYMQKCL
notes: on phage, pIII fusion
B20: Phage-485 (peptide)
peptide: YCEGHMWEYMAKCL
notes: on phage, pIII fusion
B21: Phage-487 (peptide)
peptide: YCAGHSLEYMQKCL
notes: on phage, pIII fusion
B22: Phage-477 (peptide)
peptide: YCDGHAQEYRLKCL
notes: on phage, pIII fusion
B23: Phage-478 (peptide)
peptide: YCDGHSAEYLLKCL
notes: on phage, pIII fusion
B24: Phage-561 (peptide)
peptide: YCDGHSAEYLSKCL
notes: on phage, pIII fusion
B25: Phage-523 (peptide)
peptide: YCEGHSWEHMEKCL
notes: on phage, pIII fusion
B26: Phage-493 (peptide)
peptide: YCEGHSWVYMAKCL
notes: on phage, pIII fusion
B27: Phage-527 (peptide)
peptide: YCEGHLPQYMVKCL
notes: on phage, pIII fusion
B28: Phage-474 (peptide)
peptide: YCEGHSLMYMWKCL
notes: on phage, pIII fusion
B29: Phage-563 (peptide)
peptide: YCEGHSLMYMAKCL
notes: on phage, pIII fusion
B30: Phage-496 (peptide)
peptide: YCAGHLPEYMGKCL
notes: on phage, pIII fusion
B31: Phage-529 (peptide)
peptide: YCDGHAEEYLLKCL
notes: on phage, pIII fusion
B32: Phage-481 (peptide)
peptide: YCEGHSAQYMHKCL
notes: on phage, pIII fusion
B33: Phage-482 (peptide)
peptide: YCEGHTAEHMQKCL
notes: on phage, pIII fusion
B34: Phage-491 (peptide)
peptide: YCDGHLDVYRAKCL
notes: on phage, pIII fusion
B35: Phage-506 (peptide)
peptide: YCAGHSPQYMEKCL
notes: on phage, pIII fusion
B36: Phage-525 (peptide)
peptide: YCDGHLPQYLQKCT
notes: on phage, pIII fusion
B37: Phage-520 (peptide)
peptide: YCEGHADEYMWKCL
notes: on phage, pIII fusion
B38: Phage-505 (peptide)
peptide: YCDGHSPEYMLKCL
notes: on phage, pIII fusion
B39: Phage-480 (peptide)
peptide: YCEGHIAEYMQKCL
notes: on phage, pIII fusion
B40: Phage-499 (peptide)
peptide: YCEGHVTEYMQKCL
notes: on phage, pIII fusion
B41: Phage-502 (peptide)
peptide: YCDGHELKYMLKCL
notes: on phage, pIII fusion
B42: Phage-498 (peptide)
peptide: YCDGHLSEYMSKCL
notes: on phage, pIII fusion
B43: Phage-484 (peptide)
peptide: YCDGHATEYMQKCL
notes: on phage, pIII fusion
B44: Phage-472 (peptide)
peptide: YCDGHSLLYLSKCL
notes: on phage, pIII fusion
B45: Phage-483 (peptide)
peptide: YCAGHVAEYMAKCL
notes: on phage, pIII fusion
B46: Phage-528 (peptide)
peptide: YCQGHADEYMAKCL
notes: on phage, pIII fusion

Molecular target: T1, anti-CD28 Fab (SEQ ID NOs: 202, 203)
T1 construct: biotinylated and captured on neutravidin coated plates in the phage ELISA
T1 sequence (VH, as listed by the source, chain 1 of 2): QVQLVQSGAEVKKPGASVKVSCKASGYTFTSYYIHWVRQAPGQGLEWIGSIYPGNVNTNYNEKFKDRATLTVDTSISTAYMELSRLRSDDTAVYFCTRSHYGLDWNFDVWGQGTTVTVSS
T1 sequence (VL, as listed by the source, chain 2 of 2): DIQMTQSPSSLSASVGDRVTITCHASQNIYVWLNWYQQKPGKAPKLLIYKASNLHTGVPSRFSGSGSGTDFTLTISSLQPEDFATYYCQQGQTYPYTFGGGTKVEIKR
Experiment: phage ELISA on captured Fab, wells pre-incubated with CD28 antigen (competitor);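 note: clonal phage ELISA with wells pretreated with CD28 plus blocking buffer before phage addition, bound phage detected by HRP-linked anti-M13 antibody, reference wells got blocking buffer only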
Protocol: (§1) Clonal phage were harvested as crude supernatants and screened via standard ELISAs. […] Prior to the addition of clonal phage, wells were incubated with blocking buffer and CD28 antigen or blocking buffer alone. Without washing or aspirating, clonal phage supernatants were then added to the wells and incubated for a short time. Wells were then washed followed by detection of bound phage using a horse radish conjugated anti-M13 antibody.

Binder	Anti-CD28 Fab signal in the presence of CD28
B1	0.05
B2	0.07
B3	0.07
B4	0.06
B5	0.08
B6	0.06
B7	0.07
B8	0.07
B9	0.07
B10	0.07
B11	0.09
B12	0.05
B13	0.06
B14	0.12
B15	0.06
B16	0.09
B17	0.09
B18	0.07
B19	0.06
B20	0.13
B21	0.07
B22	0.07
B23	0.07

Binder	Anti-CD28 Fab signal in the presence of CD28
B24	0.07
B25	0.06
B26	0.07
B27	0.07
B28	0.08
B29	0.06
B30	0.07
B31	0.05
B32	0.06
B33	0.05
B34	0.09
B35	0.06
B36	0.07
B37	0.06
B38	0.07
B39	0.13
B40	0.08
B41	0.08
B42	0.06
B43	0.1
B44	0.07
B45	0.06
B46	0.08

Molecular target: T1, anti-CD28 Fab (SEQ ID NOs: 202, 203)
Experiment: phage ELISA on captured Fab;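 note: ELISA with clonal phage supernatants added to wells preincubated with CD28 antigen or with blocking buffer only, bound phage detected by HRP-conjugated anti-M13 antibody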
Protocol: as §1

Binder	Anti-CD28 Fab (SEQ ID NOs: 202, 203) signal
B1	1.63
B2	1.65
B3	1.59
B4	1.63
B5	1.63
B6	1.66
B7	1.64
B8	1.5
B9	1.62
B10	1.66
B11	1.58
B12	1.64
B13	1.58
B14	1.65
B15	1.63
B16	1.63
B17	1.58
B18	1.63
B19	1.63
B20	1.64
B21	1.63
B22	1.65
B23	1.65

Binder	Anti-CD28 Fab (SEQ ID NOs: 202, 203) signal
B24	1.51
B25	1.58
B26	1.63
B27	1.58
B28	1.65
B29	1.5
B30	1.63
B31	1.57
B32	1.64
B33	1.64
B34	1.63
B35	1.61
B36	1.58
B37	1.59
B38	1.61
B39	1.64
B40	1.62
B41	1.62
B42	1.62
B43	1.64
B44	1.65
B45	1.64
B46	1.58
